# Where a chain is given by its changes, count along the chain named. Values joined by “and” are separate entries in the source; they are usually repeats but may differ in a detail not shown here. Identical values can stand only once.
# T1: human FcγRIIa (H131) (human, UniProt P12318 36-218)
# T1 construct: also called hFcγRIIaH
# T1 sequence (looked up): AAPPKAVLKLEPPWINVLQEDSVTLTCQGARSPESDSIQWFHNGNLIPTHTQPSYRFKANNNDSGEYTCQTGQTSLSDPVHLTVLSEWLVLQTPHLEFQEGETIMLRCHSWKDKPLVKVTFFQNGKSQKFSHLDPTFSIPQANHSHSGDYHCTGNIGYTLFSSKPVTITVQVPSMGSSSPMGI
# T2: human FcγRIIa (R131) (human, UniProt P12318 36-218)
# T2 construct: also called hFcγRIIaR
# T2 sequence (looked up): T1 sequence (looked up) with H132R
# T3: human FcγRIIb (human, UniProt P31994 43-217)
# T3 construct: also called hFcγRIIb
# T3 sequence (looked up): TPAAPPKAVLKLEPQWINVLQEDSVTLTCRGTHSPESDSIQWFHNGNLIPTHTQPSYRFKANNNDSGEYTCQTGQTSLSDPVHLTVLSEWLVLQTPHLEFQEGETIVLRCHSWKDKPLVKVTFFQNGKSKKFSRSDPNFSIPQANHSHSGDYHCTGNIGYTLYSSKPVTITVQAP
# B1: AB-000356 ALE LS (antibody, human IgG1, kappa)
# heavy: QVQLVESGGGVVQPGRSLRLSCAASGFTFRNFGMHWVRQTPGKGLEWVAVIWHDGSNKFYADSVEGRFTISRDNSKNMIYLQMNSLRVEDTAIYYCARDSLFYDHDNSGYYGYWGQGTLVTVSSASTKGPSVFPLAPSSKSTSGGTAALGCLVKDYFPEPVTVSWNSGALTSGVHTFPAVLQSSGLYSLSSVVTVPSSSLGTQTYICNVNHKPSNTKVDKKVEPKSCDKTHTCPPCPAPELLAGPSVFLFPPKPKDTLMISRTPEVTCVVVDVSHEDPEVKFNWYVDGVEVHNAKTKPREEQYNSTYRVVSVLTVLHQDWLNGKEYKCKVSNKALPLPEEKTISKAKGQPREPQVYTLPPSRDELTKNQVSLTCLVKGFYPSDIAVEWESNGQPENNYKTTPPVLDSDGSFFLYSKLTVDKSRWQQGNVFSCSVLHEALHSHYTQKSLSLSPGK
# light: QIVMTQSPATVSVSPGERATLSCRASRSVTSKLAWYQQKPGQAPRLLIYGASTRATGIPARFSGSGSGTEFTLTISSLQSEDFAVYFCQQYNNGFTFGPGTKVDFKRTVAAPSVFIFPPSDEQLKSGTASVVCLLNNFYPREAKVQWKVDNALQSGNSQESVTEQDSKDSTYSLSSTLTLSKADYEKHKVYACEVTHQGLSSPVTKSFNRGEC
# What was measured:
# [1] = molecular target: T4, recombinant Plasmodium falciparum circumsporozoite protein (CSP) (Plasmodium falciparum, UniProt P19597 21-375); assay: cell-based or functional assay
# T4 sequence (P19597 21-375 limits assumed): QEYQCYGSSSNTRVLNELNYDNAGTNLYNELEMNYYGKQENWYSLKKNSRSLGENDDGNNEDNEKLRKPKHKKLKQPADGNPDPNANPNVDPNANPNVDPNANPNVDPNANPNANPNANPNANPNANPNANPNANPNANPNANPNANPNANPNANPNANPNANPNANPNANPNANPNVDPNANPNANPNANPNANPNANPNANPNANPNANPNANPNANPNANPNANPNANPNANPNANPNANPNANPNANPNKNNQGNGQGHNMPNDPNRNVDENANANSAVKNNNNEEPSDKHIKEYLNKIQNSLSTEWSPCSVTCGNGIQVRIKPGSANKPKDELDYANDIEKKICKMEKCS
# [2] = molecular target: T5, human FcγRIIIa (V158) (human, UniProt P08637 17-208); assay: SPR, human FcγR
# T5 construct: also called hFcγRIIIaV
# T5 sequence (P08637 17-208 F176V limits assumed): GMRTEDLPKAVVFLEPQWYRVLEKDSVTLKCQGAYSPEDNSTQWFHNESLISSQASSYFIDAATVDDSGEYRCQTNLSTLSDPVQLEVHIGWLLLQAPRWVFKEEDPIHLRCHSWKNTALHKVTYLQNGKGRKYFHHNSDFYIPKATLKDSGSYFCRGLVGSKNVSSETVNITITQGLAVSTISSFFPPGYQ
# From the text: (§1) A human IgG1 antibody in both WT and Fc silenced (LAGA) formats were included as negative control.
# [3] = molecular target: T1, human FcγRIIa (H131); assay: SPR, human FcγR
# From the text: as §1
# [4] = molecular target: T6, human FcγRI (human, UniProt P12314 16-288); assay: SPR, human FcγR
# T6 construct: also called hFcγRI; CD64
# T6 sequence (P12314 16-288 limits assumed): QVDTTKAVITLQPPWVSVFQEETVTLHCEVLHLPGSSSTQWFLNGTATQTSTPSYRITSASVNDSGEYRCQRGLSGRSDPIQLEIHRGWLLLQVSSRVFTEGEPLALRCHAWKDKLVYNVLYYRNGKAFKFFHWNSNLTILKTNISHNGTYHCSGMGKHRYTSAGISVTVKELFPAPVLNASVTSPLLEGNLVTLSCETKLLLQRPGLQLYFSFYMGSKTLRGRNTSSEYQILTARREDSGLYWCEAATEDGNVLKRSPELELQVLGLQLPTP
# From the text: as §1
# [5] = molecular target: T2, human FcγRIIa (R131); assay: SPR, human FcγR
# From the text: as §1
# [6] = molecular target: T7, human FcγRIIIa (F158) (human, UniProt P08637 17-208); assay: SPR, human FcγR
# T7 construct: also called hFcγRIIIaF
# T7 sequence (P08637 17-208 limits assumed): as the sequence (P08637 17-208 F176V limits assumed) above, with V160F counted along it
# From the text: as §1
# [7] = molecular target: T3, human FcγRIIb; assay: SPR, human FcγR
# From the text: as §1
# [8] = molecular target: T8, human FcRn (human, UniProt P55899 24-297; P61769 21-119); assay: SPR, human FcRn, pH 6.0
# T8 construct: also called neonatal Fc receptor
# T8 sequence (P55899 24-297 limits assumed, form in doubt, chain 1 of 2): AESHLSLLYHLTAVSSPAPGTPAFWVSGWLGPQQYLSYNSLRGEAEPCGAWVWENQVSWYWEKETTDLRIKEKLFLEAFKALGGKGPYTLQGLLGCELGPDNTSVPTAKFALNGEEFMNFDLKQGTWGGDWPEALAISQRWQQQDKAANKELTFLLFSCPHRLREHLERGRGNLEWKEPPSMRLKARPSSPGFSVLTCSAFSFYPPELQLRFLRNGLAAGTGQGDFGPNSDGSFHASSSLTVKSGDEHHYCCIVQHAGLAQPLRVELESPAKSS
# T8 sequence (P61769 21-119 limits assumed, form in doubt, chain 2 of 2): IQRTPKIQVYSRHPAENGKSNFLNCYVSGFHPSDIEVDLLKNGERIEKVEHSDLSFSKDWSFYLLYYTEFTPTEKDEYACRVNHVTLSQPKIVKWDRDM
# [9] = molecular target: T4, recombinant Plasmodium falciparum …; assay: cell-based or functional assay; remark: listed apart in the source
# [10] = molecular target: T4, recombinant Plasmodium falciparum …; assay: cell-based or functional assay; remark: listed apart in the source
# [11] = molecular target: T4, recombinant Plasmodium falciparum …; assay: SPR, recombinant CSP; geometric mean, n=3
# [12] = molecular target: T4, recombinant Plasmodium falciparum …; assay: SPR, recombinant CSP; n=1
binder,measurement,setting,value
B1,"GeoMean EC50 (M), ADCP repeat, n=4",[1],6.45e-13 M
same,"Mean EC50 (pM), ADCP repeat, n=4",[1],0.6 pM
same,"Mean pEC50, ADCP repeat, n=4",[1],12.2
same,Kd,[2],73 nM and 144 nM
same,Kd,[3],218 nM and 268 nM
same,Kd,[4],56 nM and 157 nM
same,Kd,[5],675 nM and 766 nM
same,Kd,[6],89 nM and 246 nM
same,Kd,[7],3890 nM
same,Kd,[8],52 nM
same,"GeoMean EC50 (M), ADCP",[9],5.03e-13 M
same,"Mean EC50 (pM), ADCP",[9],0.5 pM
same,"Mean pEC50, ADCP",[9],12.3
same,"Geo Mean EC50 (ug/ml), ADNKA, Donor 1",[10],0.0052 µg/mL
same,"Geo Mean EC50 (ug/ml), ADNKA, Donor 2",[10],0.0035 µg/mL
same,"Geo Mean EC50 (ug/ml), ADNKA, Donor 3",[10],0.189 µg/mL
same,"Geo Mean EC50 (ug/ml), ADNKA, Donor 4",[10],0.0104 µg/mL
same,Kd,[11],1.1 nM
same,Kd,[12],1.58 nM

# Reference: patent publication US20250296995A1 (GlaxoSmithKline, published 2025)
